# Laboratory results from patent US12134788B2, “Engineered prephenate dehydrogenases and arogenate dehydrogenases and methods of using the same” (Wisconsin Alumni Research Foundation, priority 2017, dated 2024).
# Numbering of substitutions follows the chain as printed. Names may count otherwise.
# B1: SolyncADH (Slycopersicum06g050630), tomato noncanonical arogenate dehydrogenase, wild type (Solanum lycopersicum) (protein)
# chain: MSSSSSCQPKTLRIGIIGFGPFAQFLAKTMMKQGHCIHVTSRSDYSELCTDLGILFFRDMGAFLESDNEVIMISTSILSLSQVVESIPFNCLKRPTLFVDVLSVKEHPKDVLLRMMPRECDLLCTHPMFGPESGKDGWEDLTFMYDMVRIRDQPLCSSFLHIFSSEGCKMLEMTCEKHDRLAAQSQFLTHTIGRILSEMEVEPTPIDTKGFQKLVQVKESSVKDSFDLFSGLFIHNRFARQQMKNLEVALEKTKEKLQERSKELQDPIISKF
# notes: wild type
# B2: SolyncADH: noncanonical arogenate dehydrogenase from tomato, wild-type (protein, listed as Solanum lycopersicum)
# chain: B1 chain
# modifications: misc_feature (1)..(272): SolyncADH WT
# notes: noncanonical arogenate dehydrogenase from tomato, wild-type
# B3: GmncADH (Gm14g05990), soybean (Glycine max) noncanonical arogenate dehydrogenase, wild type (Glycine max) (protein)
# chain: MSTWSLKIGVVGFGSFGQFLAKTMIKQGHTLRATSRTDYSLLCLPMGIQFFRDVAAFLEADNDVILVCTSILSLSEVLSSMPLTCLKRSTLFVDVLSVKEHPRNLLIKVLPEESDILCTHPMFGPDSGKDGWQDLTFVYDKVRIRDEAICSSFLHIFASEGCRMLQMSCEEHDKIAAKSQFITHTIGRTLAEMDIKSTPIDTKGFHSLVQLKDTTIRDSFDLYSGLFLHNRFAVQELENLEHALHKVKEMLVQRKSEELGLEKTEC
# notes: wild type
# B4: Wild-type: wild-type archaeon TyrA from Methanosaeta harundinacea, recombinant (protein)
# chain: MTTMANSGTKNRMLIVGGTGGTGSWFAKYFKEHGFLVSIWGPSGKVEVAERLGVKFARDLMAEVAKSDVVLLSVPIKETAKVVEEVAPRMRPGSLLMDVTSLKAEPMKAMLRWAPDGVEVLGTHPMFGPTIPTIRGQTVILVPAAGRCDEWLLPMEEIFQEDGARVEVLGAEEHDRIMAVVQALTHFAYISIGSTLRSLDFDIAHSRRLMSPVYEIMIDFVGRILAQSPELYSSIQENPEAKRVREAYIEECQRLSKLADTGNSEGFMEAMRSAADHFDEREVALARSDRLISLWIDHREGKRRGLEPRW
# modifications: M. harundinacea; misc_feature (1)..(310): M. harundinacea TyrA MhTyrA
# notes: wild-type archaeon TyrA from Methanosaeta harundinacea, recombinant
# B5: GmPDH1 (Gm18g02650), soybean (Glycine max) prephenate dehydrogenase, wild type (Glycine max) (protein)
# chain: MSTSSSSQSLKIGIVGFGNFGQFLAKTMIKQGHTLTATSRSDYSELCLQMGIHFFRDVSAFLTADIDVIVLCTSILSLSEVVGSMPLTSLKRPTLFVDVLSVKEHPRELLLRELPEDSDILCTHPMFGPQTAKNGWTDHTFMYDKVRIRDEVICSNFIQIFATEGCKMVQMSCEEHDRAAAKSQFITHTIGRTLGEMDIQSTPIDTKGFETLVKLKETMMRNSFDLYSGLFVYNRFARQELENLEHALHKVKETLMIQRTNGEQGHKRTES
# notes: homodimer
# B6: GmPDH1 N222D: site-directed mutant of soybean PDH, Asn222 to Asp (protein)
# chain: B5 chain with N222D
# modifications: Synthetic: GmPDH1 N222D
# notes: site-directed mutant of soybean PDH, Asn222 to Asp
# B7: MtncADH (Mt5g083530), Medicago truncatula noncanonical arogenate dehydrogenase, wild type (Medicago truncatula) (protein)
# chain: MSNSPSLKIGIVGFGSFGQFLAKTMIKQGHTLTATSRTDYSHTCLQLGIQFFRDVGTFIEANNDVILICTSIMSFTKVLSSMPLACLKKPTTLFVDVLSVKEHPREVLLRVLPEESDILCTHPMFGPESGKNGWKDLNFMYDKVRIHDEATCSNFLHIFASEGCKMLQMSCEEHDKIAAKSQFITHTIGRTLAEMDIESTPIDTKGFQTLTQLKNTTMRDSFDLYSGLFVHNRFAKQELENLQRALDRVKEMLVQRMREELGPEKD
# notes: wild type
# B8: MtPDH (MtPDH1; Mt3g071980), Medicago truncatula prephenate dehydrogenase, wild type (Medicago truncatula) (protein)
# chain: MSSSSKSLKIGIVGFGTFGQFLANTMIKQGHTLTATSRTDYSQLCDQMGIHFFRDITAFLDADMDVILLCTSISSLSEVVGSMPLACLKRPTLFVDVLSVKEHPKNLLLKVLPEESDILCTHPMFGPVSGKNGWQNLTFMFDKVRIKDEVTCSKFLQIFASEGCKMVEMSCEEHDKAAAKSQFITHTIGRTLAEMDIKSTPIDTKGFQTLVELKKPVMGCSFDLYSGLFVYNRFARQELENLEHALHKVKEMLVQRIDEGQNPERTES
# B9: MtPDH C220D: site-directed mutant of M. truncatula PDH, Cys220 to Asp (protein)
# chain: B8 chain with C220D
# modifications: Synthetic: MtPDH C220D
# notes: site-directed mutant of M. truncatula PDH, Cys220 to Asp
# What was measured:
# [1] = substrate: N[C@@H](CC1(C(=O)O)C=CC(O)C=C1)C(=O)O; experiment: ADH and PDH assay: steady-state kinetics and Tyr inhibition, SolyncADH wild type; format: biochemical, Solanum lycopersicum (tomato); conditions: other: 0.5 mM NADP^+, pH 7.6, 37° C.
# Protocol: (§1) Kinetic parameters of purified recombinant proteins were determined from assays conducted at varying arogenate (19.5 μM-5 mM) and prephenate concentration (23.4 μM-6 mM). Standard assay conditions were 25 mM HEPES pH 7.6, 50 mM KCl and 10% (v/v) ethylene glycol, and 0.5 mM NADP^+ with varied substrate, concentrations. Reactions were initiated by addition of enzyme and incubated at 37° C. monitored every 10-15 seconds at […] using a microplate reader (Tecan Genios). Kinetic parameters were determined by fitting initial velocity data to the Michaelis-Menten equation using the Origin software (OriginLab).
# (§2) Arogenate was prepared by enzymatic conversion of prephenate (Sigma-Aldrich) as previously reported^56. For Tyr inhibition assays, Tyr was dissolved in a slightly basic solution (0.025 N NaOH) due to solubility issues, thus the concentration of lysis buffer was increased to 500 mM HEPES final concentration to buffer against the changes by addition of Tyr in the reaction. Reactions containing varying amounts of Tyr (10 μM-8 mM) with 0.5 mM NADP^+ and either 1 mM arogenate or 0.8 mM prephenate were monitored as above.
# [2] = PDH assay: steady-state kinetics of purified recombinant plant enzymes with prephenate; format: biochemical; conditions: prephenate versus arogenate, NADP+ cofactor
# Description: As used herein, a polypeptide may “have greater arogenate dehydrogenase activity than prephenate dehydrogenase activity” or “have greater prephenate dehydrogenase activity than arogenate dehydrogenase activity” when the steady-state kinetic parameters (kcat/Km (mM^−1s^−1)) for arogenate dehydrogenase activity are greater than the steady-state parameters (kcat/Km (mM^−1s^−1)) for prephenate dehydrogenase activity or when the steady-state kinetic parameters (kcat/Km (mM^−1s^−1)) for prephenate dehydrogenase activity are greater than the steady-state parameters (kcat/Km (mM^−1s^−1)) for arogenate dehydrogenase activity. Steady-state kinetic parameters may be measured using techniques similar to those described by the inventors in the Examples. Briefly, kinetic parameters of purified polypeptides can be determined from assays conducted at varying arogenate and prephenate concentrations. Standard assay conditions include 25 mM HEPES pH 7.6, 50 mM KCl and 10% (v/v) ethylene glycol, and 0.5 mM NADP^+ with varied substrate, concentrations. Reactions can be initiated by the addition of the polypeptide and incubated at 37° C. monitored every 10-15 seconds at A340nm using a microplate reader. Kinetic parameters may be determined by fitting initial velocity data to the Michaelis-Menten equation using the Origin software.
# as §1
# [3] = substrate: N[C@@H](CC1(C(=O)O)C=CC(O)C=C1)C(=O)O; experiment: ADH and PDH assay: steady-state kinetics and Tyr inhibition, GmncADH wild type; format: biochemical, Glycine max (soybean); conditions: other: 0.5 mM NADP^+, pH 7.6, 37° C.
# Protocol: as §1, §2
# [4] = PDH assay of microbial TyrA enzymes (Example 2); format: biochemical
# Protocol: ADH and PDH assays were performed using purified recombinant enzymes for SsTyrA and MhTyrA Wt and Q227E mutant, while the E. coli cell lysate was used for OiTyrA as expression and purification of this enzyme was unsuccessful. Reactions contained 0.8 mM substrate (arogenate or prephenate) and 0.8 mM cofactor (NADP+ or NAD+) together with reaction buffer (25 mM HEPES pH 7.6, 50 mM KCl, 10% (v/v) ethylene glycol). For OiTyrA assays containing cell lysates, reactions were incubated for 45 minutes and analyzed using HPLC as previously reported (Schenck et al., 2015). For pure enzymes, reactions were monitored every 10-15 seconds for reduced cofactor at A340 nm using a microplate reader (Tecan Genios). Kinetic parameters of purified recombinant enzymes were determined from assays containing varying concentrations of arogenate (39.1 μM-5 mM) or prephenate (39.1 μM-5 mM) substrate and monitored 10-15 seconds for reduced cofactor at A340 nm using a microplate reader (Tecan Genios). Kinetic parameters were determined by fitting initial velocity data to the Michaelis-Menten equation using Origin software (OriginLab) from technical replicate assays (n=3). Arogenate substrate was prepared by enzymatic conversion of prephenate (Sigma-Aldrich). All enzyme assays were conducted at a reaction time and protein concentration that were in the linear range and proportional to reaction velocity.
# [5] = substrate: N[C@@H](CC1(C(=O)O)C=CC(O)C=C1)C(=O)O; experiment: ADH and PDH assay: steady-state kinetics and Tyr inhibition, GmPDH1 wild type; format: biochemical, Glycine max (soybean); conditions: other: 0.5 mM NADP^+, pH 7.6, 37° C.
# Protocol: as §1
# as §2, with “Reactions containing varying amounts of Tyr (10 μM-8 mM) with 0.5 mM NADP^+ and either 1 mM arogenate or 0.8 mM prephenate were monitored as above.” left out
# [6] = substrate: O=C(O)C(=O)CC1(C(=O)O)C=CC(O)C=C1; experiment: as above; format: biochemical, Glycine max (soybean); conditions: other: 0.5 mM NADP^+, pH 7.6, 37° C.
# Protocol: as §1
# as §2, with “Reactions containing varying amounts of Tyr (10 μM-8 mM) with 0.5 mM NADP^+ and either 1 mM arogenate or 0.8 mM prephenate were monitored as above.” left out
# [7] = substrate: N[C@@H](CC1(C(=O)O)C=CC(O)C=C1)C(=O)O; experiment: ADH and PDH assay: steady-state kinetics and Tyr inhibition, MtncADH wild type; format: biochemical, Medicago truncatula; conditions: other: 0.5 mM NADP^+, pH 7.6, 37° C.
# Protocol: as §1, §2
# [8] = substrate: O=C(O)C(=O)CC1(C(=O)O)C=CC(O)C=C1; experiment: as above; format: biochemical, Medicago truncatula; conditions: other: 0.5 mM NADP^+, pH 7.6, 37° C.
# Protocol: as §1, §2
# [9] = substrate: N[C@@H](CC1(C(=O)O)C=CC(O)C=C1)C(=O)O; experiment: ADH and PDH assay: steady-state kinetics and Tyr inhibition, MtPDH wild type; format: biochemical, Medicago truncatula; conditions: other: 0.5 mM NADP^+, pH 7.6, 37° C.
# Protocol: as §1
# as §2, with “Reactions containing varying amounts of Tyr (10 μM-8 mM) with 0.5 mM NADP^+ and either 1 mM arogenate or 0.8 mM prephenate were monitored as above.” left out
# [10] = substrate: O=C(O)C(=O)CC1(C(=O)O)C=CC(O)C=C1; experiment: as above; format: biochemical, Medicago truncatula; conditions: other: 0.5 mM NADP^+, pH 7.6, 37° C.
# Protocol: as §1
# as §2, with “Reactions containing varying amounts of Tyr (10 μM-8 mM) with 0.5 mM NADP^+ and either 1 mM arogenate or 0.8 mM prephenate were monitored as above.” left out
molecule,measurement,setting,value
B1,Km,[1],450 ± 50 µM
same,kcat,[1],15.9 ± 2.1 s⁻¹
same,kcat/Km,[1],35300 M⁻¹ s⁻¹
B2,substrate specificity: PDH versus ADH activity (in words),[2],exhibited ADH but not PDH activity
B3,Km,[3],410 ± 30 µM
same,kcat,[3],27.7 ± 1.1 s⁻¹
same,kcat/Km,[3],67600 M⁻¹ s⁻¹
B4,ADH and PDH activity (in words),"[4]; 0.8 mM arogenate or prephenate, 0.8 mM cofactor",strong PDH and very weak ADH activity
same,cofactor preference (in words),"[4]; PDH activity, NADP+ versus NAD+, 0.8 mM",strongly preferred NADP+ over NAD+ cofactor
B5,Km,[5],2590 ± 90 µM
same,kcat,[5],6.3 ± 0.7 s⁻¹
same,kcat/Km,[5],2430 M⁻¹ s⁻¹
same,Km,[6],90 ± 10 µM
same,kcat,[6],30.4 ± 0.7 s⁻¹
same,kcat/Km,[6],338000 M⁻¹ s⁻¹
B6,substrate specificity: PDH versus ADH activity (in words),[2],gained ADH activity
B7,Km,[7],140 ± 20 µM
same,kcat,[7],39 ± 7.6 s⁻¹
same,kcat/Km,[7],279000 M⁻¹ s⁻¹
same,Km,[8],6690 ± 270 µM
same,kcat,[8],0.3 ± 0.1 s⁻¹
same,kcat/Km,[8],45 M⁻¹ s⁻¹
B8,Km,[9],940 ± 40 µM
same,kcat,[9],16.9 ± 1.1 s⁻¹
same,kcat/Km,[9],18000 M⁻¹ s⁻¹
same,Km,[10],50 ± 10 µM
same,kcat,[10],18.5 ± 3 s⁻¹
same,kcat/Km,[10],370000 M⁻¹ s⁻¹
B9,substrate specificity: PDH versus ADH activity (in words),[2],reduced PDH activity and enhanced ADH activity
